Measured values as given in the supplement of paper PMC10567573.
± gives the standard deviation.

Assay: protein stability index of a GFP-peptide fusion (GPS, HEK-293T) (PSI 1-6); higher = more stable
Details: c terminus: a fixed tail appended
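Also: 24-mer peptide tiles fused after GFP, lentivirally expressed, FACS-sorted into six equal bins by GFP/DsRed ratio, decoded by Illumina sequencing, PSI is the read-weighted mean bin number.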

| Sequence | protein stability index (treatment: DMSO) | protein stability index (treatment: MLN4924 1 uM, 8 h) |
| --- | --- | --- |
| GSDKQQQQQHIECVVCGDKSSGKH [NR2F2] | 4.93 ± 0.35 | 5.07 ± 0.18 |
| GSLYVFGGTTGYIYSTDLHKLDLN [KLHDC10] | 2.4 ± 0.5 | 2.66 ± 0.46 |
| GSMKIKSSWDIDGRATKRRKKSGD [FBXO34] |  | 4.34 ± 0.81 |
| GSNPSSSNSSQDSLHKGAKRKGIK [PPFIA4] | 5.14 ± 0.69 | 5.53 ± 0.35 |
| GSSSFSLKGYPSLMRSQSPKAQPQ [TRIM29] | 3.76 ± 0.26 | 3.73 ± 0.28 |
| GSVLRIQPLRTPRDEAIYECVASN [PTPRD] | 3.24 ± 0.12 | 3.17 ± 0.43 |
| GTDQVCVLEWGAEGVAGKSGLEKE [FCHSD1] | 5.01 ± 0.25 | 5.07 ± 0.15 |
| GTEYTCKVYPVQEALAVLEPYARL [TRIB3] | 2.62 ± 0.23 | 2.48 ± 0.33 |
| GVGTSMEGASPLSERCQRQLQSLC [FANCE] | 3.9 ± 0.16 | 3.78 ± 0.15 |
| GVILHSLKTQSLEGKRKAFYTCAS [OR4A15] | 2.48 ± 0.27 | 2.19 ± 0.27 |
| GYGGSRDSYSSSRSDLYSSGRDRV [RBMX] | 3.828 ± 0.029 | 3.99 ± 0.37 |
| HASSYISPEKEEQYIAQFTSQFLS [PRAME] | 3.06 ± 0.44 | 3.31 ± 0.27 |
| HDGSSYLNSVERYDPKTNQWSSDV [KLHL20] | 4.46 ± 0.25 | 4.27 ± 0.4 |
| HDSVVEMIRKGGDQTSLLVVDKET [PDZK1] |  | 4.76 ± 0.33 |
| HESFFSLFSDPRSTRLTRIHLRED [ZER1] | 3.04 ± 0.26 | 3.14 ± 0.11 |
| HFHRTLKEACDQHGPDLYPKFKKW [CPOX] | 2.49 ± 0.21 | 2.75 ± 0.14 |
| HFQDNLHSVNRDLNELERLSNLVG [MED27] | 3.47 ± 0.19 | 3.52 ± 0.36 |
| HGEADRSTLKKALPTLSHIQEAQS [YJU2B] | 4.81 ± 0.3 | 4.7 ± 0.21 |
| HGFLFMIFQIGVLGFGPTYVVLAY [SOAT1] | 2.86 ± 0.85 | 2.71 ± 0.8 |
| HGIRPPQLEQPEKMPVLKAEASHY [RHOBTB3] | 4.41 ± 0.11 | 4.41 ± 0.2 |
| HGSQGTYSNTKENGINGELTSADR [MAP2] | 5.11 ± 0.24 | 5.17 ± 0.22 |
| HGVRAKVQPQARKKEMEMRQLQRG [CPN1] | 4.38 ± 0.38 | 4.5 ± 0.25 |

| Sequence | protein stability index (treatment: DMSO) | protein stability index (treatment: MLN4924 1 uM, 8 h) |
| --- | --- | --- |
| HHRVQENQMDKARRHPQGAWKELD [CHGB] | 4.45 ± 0.11 | 4.4 ± 0.11 |
| HIIRIGDLKPTGEIPKQVKVKKLK [DENND6A] | 2.73 ± 0.2 | 3.12 ± 0.19 |
| HLESKDINQEELRALEEVEMKLQK [C10orf62] | 5.31 ± 0.32 | 5.34 ± 0.24 |
| HLKRHFMFRNHLCLVFELLSYNLY [DYRK1B] | 3.34 ± 0.23 | 3.29 ± 0.88 |
| HLSPLVVHRQLSHLYAEPQKSPWC [ESR2] | 2.51 ± 0.36 | 2.79 ± 0.36 |
| HNRSNNKYSYTSTSDDNLLKNIEL [KCTD13] | 3.66 ± 0.12 | 3.73 ± 0.16 |
| HPYSTTFQESASTPETRAKFTQDN [TEKT4] | 4.54 ± 0.13 | 4.67 ± 0.31 |
| HQLDFVQVKASSPVPATPILQLEE [TRIM9] | 4.54 ± 0.094 | 4.49 ± 0.33 |
| HQYWPAERSARYQYFVVDPMAEYN [PTPRD] | 2.4 ± 0.19 | 2.51 ± 0.32 |
| HRHTSHLGHAVLPSNARGPILSRS [SPRY1] | 3.69 ± 0.14 | 3.94 ± 0.13 |
| HSGSVVGAGLPQFQSISLRKIQFN [CLCN6] | 2.85 ± 0.24 | 3 ± 0.27 |
| HSMKPHPAITATLLDFMCRIIPNF [INTS3] | 2.96 ± 0.45 | 3 ± 0.88 |
| HSTTPSGPGDEVARGIAGEKFDIV [ARFIP2] | 4.75 ± 0.34 | 4.64 ± 0.15 |
| HTGEPLFSGSNEVDQMNRIVEVLG [DYRK1B] | 3.59 ± 0.21 | 3.57 ± 0.25 |
| HTNCFELSIYVGCDKYPHESQLPE [CPXM2] | 2.54 ± 0.34 | 2.44 ± 0.051 |
| HTPAGAAVSAMKCGLLPISPEALS [ADD1] | 3.13 ± 0.25 | 3.29 ± 0.32 |
| HTVPDFHLSSPAKNFFKKAAAALF [PLK2] | 2.74 ± 0.96 | 2.65 ± 0.73 |
| HVFQRQKSELSDGIAILVGSNDRV [TRIM55] | 3.18 ± 0.25 | 3.21 ± 0.21 |
| HVMGLYPDLLPTDYRKQLQYPNPL [VPS39] | 2.34 ± 0.28 | 2.59 ± 0.24 |
| HYGNIMYDRRVIRGNTYALQTGPL [RSPH3] | 2.33 ± 0.1 | 2.13 ± 0.32 |
| ICELVMALDYLQNQRIIHRDMKPD [STK32A] | 2.62 ± 0.64 | 2.44 ± 0.5 |
| ICPKCWTLMTMAIRIIDRALKEDF [PRIM1] | 2.25 ± 0.26 | 2.57 ± 0.37 |

| Sequence | protein stability index (treatment: DMSO) | protein stability index (treatment: MLN4924 1 uM, 8 h) |
| --- | --- | --- |
| ICPLKERRFGAVACGVAMELYVFG [GAN] | 2.36 ± 0.53 | 2.96 ± 1.1 |
| IDNTTVIYNSNIFTDPFFIVETLC [KCNA1] | 2.72 ± 0.67 | 2.53 ± 0.37 |
| IEKTGGVEAVKNELRRQAPPPPPP [WASL] | 4.492 ± 0.027 | 4.46 ± 0.58 |
| IGESMYGDFEEAFDHLQNRLIATK [TENT5C] | 3.63 ± 0.12 | 3.59 ± 0.067 |
| IGGHLVRDNDHPDHSSRELSKILA [FUT8] | 3.92 ± 0.19 | 3.9 ± 0.18 |
| IISKPVPQTLIMAYDYAKEVNSAE [FEM1C] | 2.93 ± 0.34 | 2.81 ± 0.16 |
| IKDLSVVHSDLSSIVILDNSPGAY [CTDNEP1] | 2.49 ± 0.23 | 2.48 ± 0.3 |
| ILGETQEEEDEILPRKDYESLDYD [CLCN6] | 5.33 ± 0.2 | 5.18 ± 0.086 |
| ILHTAWHPSENIIAVAATNNLYIF [PPP2R2B] | 3.17 ± 0.04 |  |
| ILKNLSQVAMRCRCSSMHFLVAEW [SAT1] | 2.4 ± 0.2 | 2.65 ± 0.31 |
| ILNLKKKECKDRGFEYDGKINAWD [NLN] | 2.97 ± 0.26 | 3.43 ± 0.6 |
| ILSGHEHAVSTCHFCVDDTKLLSG [WDR88] | 2.71 ± 0.35 | 2.92 ± 0.35 |
| IMNDLSNRVWSISQEPDPVQRLQA [TRIM14] | 3.16 ± 0.31 | 3.16 ± 0.17 |
| INGLQAWLLTHLLWFANAHLLSWF [DHCR7] | 3.18 ± 0.3 | 3.07 ± 0.44 |
| INSTAPFEEQENYFLLCDVLPEDR [ZNF277] | 3.92 ± 0.36 | 4.12 ± 0.18 |
| INVWDVLKGSRVSILFGHENRVST [GNB5] | 2.31 ± 0.33 | 2.27 ± 0.34 |
| IQDRLSNTLQTYIRCRHPPPGSHL [VDR] | 2.73 ± 0.17 | 2.74 ± 0.22 |
| IQKLTQIETGENVTGMELEFKRLA [PTPRD] | 3.51 ± 0.08 | 3.55 ± 0.43 |
| IQLKSVADGQESTPPTPAPTSGIV [WASL] | 4.68 ± 0.21 | 4.84 ± 0.16 |
| IQRPANAIKEMIENCLDAKSTSIQ [MLH1] | 4.16 ± 0.16 |  |
| IRDIRRRGKNKMAAQNCRKRKLDT [NFE2L1] | 3.84 ± 0.29 | 3.94 ± 0.32 |
| IRPVAGYLSPRDFLSGLAFRVFHC [TPH1] | 2.1 ± 0.13 | 2.12 ± 0.1 |
